Assay results taken from US20180111972A1.

Assays:
[1] = target: human PDGFR on BJ-5ta human fibroblasts (human) (UniProt P09619); assay: flow cytometry on cells, soluble ligand titrated
[2] = target: human PDGFR on BJ-5ta human fibroblasts (human) (UniProt P09619); assay: flow cytometry titration of the soluble FLAG-tagged protein on BJ-5ta cells, anti-FLAG detection
[3] = target: human PDGFR on BJ-5ta human fibroblasts (human) (UniProt P09619); assay: flow cytometry on BJ-5ta cells, soluble ligand titrated 5 h at 4 C, anti-FLAG-PE
[4] = target: human PDGFR on BJ-5ta human fibroblasts (human) (UniProt P09619); assay: flow cytometry on cells, soluble ligand titrated 3 h at 4 C, anti-FLAG-PE
[5] = target: mouse PDGFR on NIH/3T3 mouse fibroblasts (mouse) (UniProt P05622); assay: flow cytometry on cells, soluble ligand titrated
[6] = target: mouse PDGFR on NIH/3T3 mouse fibroblasts (mouse) (UniProt P05622); assay: flow cytometry on cells, soluble ligand titrated 3 h at 4 C, anti-FLAG-PE

B1: PVAM-S (PV R32A), soluble, FLAG and hexahistidine tags (designed binder)
chain: DYKDDDDKIAEPAMIAECHPIETLVDILQEYPDEIGYIFKPSCVPLMRCGGCCNNRNVQCRPTEESNITMQIMRIKPHRGQHIGEMSFLQHNKCRCETVAAGSTSGSGKSSEGKGEVVKFMDVYQRSYCKTRTEVFEISRRLIDATNANFLVWPPCVEVQRCSGCCNHEGLECVPTQVQLRPVQVRKIEFVRKKPIFKKATVTLEDHLACECRPKKDHHHHHH
[1]
  fold decrease in Kd compared to PV6: 41 fold
[2]
  EC50 (read off the curve): 6 pM
[3]
  Kd: 5.1 pM
[4]
  Kd: 10.9 pM

B2: PV RF (PV K87R chain 1 and PV I182F chain 2), soluble, FLAG and hexahistidine tags (designed binder)
chain: DYKDDDDKIAEPAMIAECHPIETLVDIFQEYPDEIEYIFKPSCVPLMRCGGCCNNRNVQCRPTEESNITMQIMRIKPHQGQHIGEMSFLQHNKCRCETVAAGSTSGSGKSSEGKGEVVKFMDVYQRSYCKTRTEVFEISRRLIDRTNANFLVWPPCVEVQRCSGCCNDEGLECVPTQVQLRPVQVRKIEFVRKKPIFKKATVTLEDHLACECRPKKDHHHHHH
[1]
  fold decrease in Kd compared to PV6: 63 fold
[5]
  fold decrease in Kd compared to PV6: 22 fold
[4]
  Kd: 7.1 pM
[6]
  Kd: 15 pM
